Legend:
[1] = molecular target: T1, human MIA protein labelled for the HTFP assay (MIA-biotin conjugate immobilised; MIA-Ru(bpy)3 in solution) (human, UniProt Q16674 25-131, Ru(bpy)3 (from Ru(bpy)3-isothiocyanate) on the copy in solution; biotin on the immobilised copy; sites not stated); experiment: fluorescence polarisation; heterogeneous transition-metal-based fluorescence polarization (HTFP) assay: MIA-biotin immobilised in streptavidin-coated 96 well plates, MIA-Ru(bpy)3 in solution, RT, 250 uL per well, P/P0 against a well without MIA-biotin; peptides at 1.6 uM; conditions: both partners purified
T1 construct: human MIA protein; source: human MIA protein labeled with Ru(bpy)3-isothiocyanate, purified over a size exclusion column (Sephadex G75 M PD-10)
T1 sequence (looked up): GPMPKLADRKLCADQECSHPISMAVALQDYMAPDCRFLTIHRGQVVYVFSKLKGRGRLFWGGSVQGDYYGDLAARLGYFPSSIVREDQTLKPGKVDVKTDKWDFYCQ

[2] = molecular target: T2, recombinant human MIA, wild type (human, UniProt Q16674 25-131); experiment: NMR titration; 2D 1H-15N HSQC of uniformly 15N-enriched MIA with increasing amounts of AR71, 300 K, pH 7; conditions: both partners purified
T2 construct: The printed residue numbers (C17, C106) fit the mature protein without its signal peptide; The vector may add a His tag; also called wt MIA; wild-type (wt) MIA; source: in vitro expression, Rapid Translation System RTS 500 E. coli HY Disulfide Kit (cell free)
T2 sequence (looked up): T1 sequence (looked up)

- binding result [1]: binds
- binding result [2]: binds
Binder: Ac-FHWRYPLPLPGQ-NH2 [dodecapeptide AR71]

Reference: publication PMC3362532, “Targeting Melanoma Metastasis and Immunosuppression with a New Mode of Melanoma Inhibitory Activity (MIA) Protein Inhibition” (PLoS ONE, 2012)
